Assay results: patent US20250381244A1

Molecular target: Neuropilin-2 (human NRP-2), endogenous on U87MG, Jurkat and HUVEC cells (human) (UniProt O60462)
Assay: cell-based or functional assay

Chain of Neuropilin-2 (human NRP-2), endogenous on U87MG, Jurkat and HUVEC cells (human) (O60462 21-931 limits assumed): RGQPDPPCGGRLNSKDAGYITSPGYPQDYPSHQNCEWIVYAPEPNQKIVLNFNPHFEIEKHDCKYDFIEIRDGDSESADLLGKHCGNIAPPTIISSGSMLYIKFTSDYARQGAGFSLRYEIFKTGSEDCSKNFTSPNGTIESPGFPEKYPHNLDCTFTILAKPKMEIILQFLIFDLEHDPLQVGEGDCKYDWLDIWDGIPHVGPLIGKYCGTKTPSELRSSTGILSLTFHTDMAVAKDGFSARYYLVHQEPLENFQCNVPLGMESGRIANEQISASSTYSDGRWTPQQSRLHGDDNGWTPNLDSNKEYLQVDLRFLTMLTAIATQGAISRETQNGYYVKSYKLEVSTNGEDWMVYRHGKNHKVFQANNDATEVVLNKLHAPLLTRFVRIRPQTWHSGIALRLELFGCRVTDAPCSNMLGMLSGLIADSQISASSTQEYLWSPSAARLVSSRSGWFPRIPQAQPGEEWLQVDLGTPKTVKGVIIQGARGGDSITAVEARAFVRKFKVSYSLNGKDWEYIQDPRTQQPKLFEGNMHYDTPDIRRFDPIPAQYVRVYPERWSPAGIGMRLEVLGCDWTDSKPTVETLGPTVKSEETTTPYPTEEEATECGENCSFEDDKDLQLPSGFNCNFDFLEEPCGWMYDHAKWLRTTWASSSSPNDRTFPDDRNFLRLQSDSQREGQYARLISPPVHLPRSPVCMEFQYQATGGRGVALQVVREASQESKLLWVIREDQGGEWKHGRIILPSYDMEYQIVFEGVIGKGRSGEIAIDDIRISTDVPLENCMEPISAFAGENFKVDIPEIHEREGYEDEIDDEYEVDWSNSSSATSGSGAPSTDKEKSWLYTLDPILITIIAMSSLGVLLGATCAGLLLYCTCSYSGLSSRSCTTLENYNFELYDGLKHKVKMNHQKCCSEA

Human recombinant SEMA3F (full-length, His-Myc-tagged human SEMA3F, secreted by 293T cells and purified) (from UniProt Q13275 20-785) (ligand)
inhibition of DFO-induced VEGF promoter luciferase activity, U87MG cells: 43%
inhibition of stress fiber formation (phalloidin staining), pcDNA3.1 control vector transfected U87MG cells: 90%
reduction of hypoxia (1% O2)-induced VEGF promoter luciferase activity, U87MG cells: 44%
suppression of RhoA activity (rhotekin pulldown), control pcDNA3.1-transfected U87MG cells: 88%
